Test results reported in patent EP1192182B1, “PITUITARY ADENYLATE CYCLASE ACTIVATING PEPTIDE (PACAP) RECEPTOR 3 (R3) AGONISTS AND THEIR PHARMACOLOGICAL METHODS OF USE” (priority 1999, dated 2001).
No end group written: not given here.

T1: PACAP-R3 (human, UniProt P41587 24-438)
T1 sequence (looked up): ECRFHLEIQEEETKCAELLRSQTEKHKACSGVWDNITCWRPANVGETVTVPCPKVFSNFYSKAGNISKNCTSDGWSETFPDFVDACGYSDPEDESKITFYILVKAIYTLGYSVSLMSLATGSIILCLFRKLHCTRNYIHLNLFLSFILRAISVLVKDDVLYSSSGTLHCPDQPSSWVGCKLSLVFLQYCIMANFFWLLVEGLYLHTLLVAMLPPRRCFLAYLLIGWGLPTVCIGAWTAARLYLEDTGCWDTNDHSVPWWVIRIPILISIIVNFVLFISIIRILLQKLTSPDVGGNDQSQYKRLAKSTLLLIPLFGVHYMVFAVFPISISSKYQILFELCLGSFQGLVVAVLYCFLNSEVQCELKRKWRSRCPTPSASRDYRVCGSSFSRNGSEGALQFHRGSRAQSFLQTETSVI


What follows are binders tested against T1, PACAP-R3 (assay: cell-based or functional assay).

Binder	R3 Selectivity	R3 EC50
HSDAVFTDNYTRLRKQMAAKKYLNSILK [R3P50]	6 ratio	–
HSDGIFTDSYSRYRKQLAVKKYLAAVKK [R3P39]	2 ratio	–
HSDGIFTDSYSRYRKQLAAKKYLADVKKGGT [R3P37]	18 ratio	–
HSDAVFTDNYTRLRKQLAVKKYLNSILN [R3P46]	7 ratio	–
HSDAVFTENYTRLRKQMAVKKYLNSLKK-NH2 [R3P7]	0.5 ratio	–
HSDGIFTESYSRYRKQMAVKKYLAALKKKRYKQRVKNK [R3P6]	3 ratio	–
HSDGIFTDSYSRYRKQMAVKKYLAAVKQGGT-NH2 [R3P16]	1.4 ratio	–
HSDAVFTDNYTRLRKQMAVKKYLNSIKK-NH2 [R3P8]	1.5 ratio	–
HSDAVFTDNYTRLRKQMAVKKYLNSIKKKR [R3P57]	190 ratio	–
HSDAVFTENYTKLRKQLAAKKYLNDLKK [R3P5]	30 ratio	–
HSDAVFTDNYTRLRKQMAAKKYLNSIKKKR [R3P53]	2500 ratio	–
HSDGIFTDSYSRYRKQMAVKKYLAAVKKYLAAVRHG-NH2 [R3P17]	2 ratio	–
HSDAVFTDNYTRLRKQMAVKKYLNDILN [R3P48]	8 ratio	–
HSDAVFTDNYTRLRKQMAVKKYLNSIKKK [R3P58]	170 ratio	–
HSDAVFTDNYTRLRKQMAAKKYLNSILN [R3P47]	6 ratio	–
HSDAVFTDNYTRLRKQMAAKKYLNSIKN [R3P49]	30 ratio	–
HSDAVFTENYTKLRKQLAAKKYLNDLKKGGT [R3P3]	130 ratio	–

Binder	R3 Selectivity	R3 EC50
HSDAVFTENYTKLRKQLAAKKYLNDLLNGGT [R3P10]	0.3 ratio	–
HSDAVFTDNYTRLRKQVAAKKYLQSIKK [R3P60]	120 ratio	–
HSDAVFTDNYTRLRKQIAAKKYLQTIKK [R3P61]	140 ratio	–
HSDAVFTDNYTRLRKQMAVKKYLNSIKKGGT [R3P9]	20 ratio	–
HSDAVFTDNYTRLRKQMAAKKYLNSIKKKRY [R3P52]	> 250 ratio	–
HSDAVFTDNYTRLRKQMAVKKYLNSIKKKRY [R3P56]	100 ratio	–
HSDAVFTDNYTRLRKQMAVKKYLNSIKNKRY [R3P59]	70 ratio	–
HSDAVFTDNYTRLRKQMAAKKYLNSIKNKRY [R3P55]	280 ratio	–
Ac-HSDAVFTENYTKLRKQLAAKKYLNDLKKGGT (ends and bridges not checked) [R3P2]	> 300 ratio	–
HSDAVFTDNYTRLRKQMAAKKYLNSIKK [R3P51]	90 ratio	–
HSDGIFTDSYSRYRKQMAVKKYLAAVKK [R3P40]	2 ratio	–
HSDAVFTDNYTRLRKQMAAKKYLNSIKKK [R3P54]	> 200 ratio	–
HSDGIFTDSYSRYRKQLAAKKYLADVKK [R3P38]	7 ratio	–
HSDAVFTDNYTRLRKQLAAKKYLNDILKGGT [R3P23]	23 ratio	–
HSDAVFTDNYTRLRKQLAVKKYLNDILKGGT [R3P28]	1 ratio	–
HSDAVFTDNYTRLRKQLAAKKYLNDILNGGT [R3P27]	8 ratio	–

Further lines, results first:

R3 Selectivity	R3 EC50	Binder
100 ratio	0.09 nM	HSDAVFTDNYTRLRKQMACKKYLNSIKNKR [R3P94]
30 ratio	–	HSDAVFTDNYTRLRKQVAAKKYLQSILKK [R3P85]
40 ratio	–	HSDAVFTDNYTRLRKQVAAKKYLQSILKKR [R3P84]
12 ratio	–	HSDAVFTDNYTRLRKQVAVKKYLQSILKKR [R3P88]
15 ratio	–	HSDAVFTDNYTRLRKQVAVKKYLQSILKK [R3P89]
100 ratio	–	HSDAVFTDNYTRLRKQVAAKKYLNSIKK [R3P62]
500 ratio	–	HSDAVFTDNYTRLRKQVAAKKYLQSIKKKR [R3P77]
130 ratio	–	HSDAVFTDNYTRLRKQMAAKKYLNSIKNKR [R3P65]
230 ratio	–	HSDAVFTDNYTRLRKQVAAKKYLNSIKKKR [R3P78]
110 ratio	–	HSDAVFTDNYTRLRKQVAAKKYLQSIKNK [R3P86]
100 ratio	–	HSDAVFTDNYTRLRKQVAVKKYLQSIKKK [R3P81]
> 600 ratio	–	HSDAVFTDQYTRLRKQLAAKKYLNTIKNKRY [R3P72]
> 500 ratio	–	HSDAVFTDQYTRLRKQLAAHKYLNTIKNKRY [R3P75]
190 ratio	–	HSDAVFTDNYTRLRKQMAAKKYLQSIKNKRY [R3P69]
250 ratio	–	HSDAVFTDNYTRLRKQVAAKKYLQSIKNKRY [R3P66]
60 ratio	–	HSDAVFTDNYTRLRKQVAAKKYLQSILKKRY [R3P83]
150 ratio	–	HSDAVFTDNYTRLRKQMAAKHYLNSIKNKRY [R3P74]
330 ratio	–	HSDAVFTDNYTRLRKQLAAKKYLNTIKNKRY [R3P67]
170 ratio	–	HSDAVFTDNYTRLRKQMAAHKYLNSIKNKRY [R3P73]
> 250 ratio	–	HSDAVFTDNYTRLRKQMAAKKYLNTIKNKRY [R3P70]
660 ratio	–	HSDAVFTDQYTRLRKQMAAKKYLNSIKNKRY [R3P71]
23 ratio	–	HSDAVFTDNYTRLRKQVAVKKYLQSIKNKRY [R3P82]
3 ratio	–	HSDAVFTDNYTRLRKQVAVKKYLQSILKKRY [R3P87]
40 ratio	0.14 nM	HSDAVFTDNYTRLRKQVAAKKYLQSILNK [R3P93]
100 ratio	0.02 nM	HSDAVFTDNYTRLRKQVAAKKYLQSILNKR [R3P92]
